B3: human FLRT3 LRR domain (residues K29-D357) (domain or fragment, UniProt Q9NZU0 29-357, looked up)
chain: KSCPSVCRCDAGFIYCNDRFLTSIPTGIPEDATTLYLQNNQINNAGIPSDLKNLLKVERIYLYHNSLDEFPTNLPKYVKELHLQENNIRTITYDSLSKIPYLEELHLDDNSVSAVSIEEGAFRDSNYLRLLFLSRNHLSTIPWGLPRTIEELRLDDNRISTISSPSLQGLTSLKRLVLDGNLLNNHGLGDKVFFNLVNLTELSLVRNSLTAAPVNLPGTNLRKLYLQDNHINRVPPNAFSYLRQLYRLDMSNNNLSNLPQGIFDDLDNITQLILRNNPWYCGCKMKWVRDWLQSLPVKVNVRGLMCQAPEKVRGMAIKDLNAELFDCKD
modifications: N-linked glycosylation observed at N226

Columns and labels:
[1] = target: B3; test: flow cytometry on cells
[2] = target: B3; test: BLI
[3] = target: the molecule itself; test: SEC

B1: biotinylated human LPHN3 olfactomedin domain (residues V132-G392) (domain or fragment, UniProt Q9HAR2 132-392, looked up)
chain: VFLCPGLLKGVYQSEHLFESDHQSGAWCKDPLQASDKIYYMPWTPYRTDTLTEYSSKDDFIAGRPTTTYKLPHRVDGTGFVVYDGALFFNKERTRNIVKFDLRTRIKSGEAIIANANYHDTSPYRWGGKSDIDLAVDENGLWVIYATEQNNGKIVISQLNPYTLRIEGTWDTAYDKRSASNAFMICGILYVVKSVYEDDDNEATGNKIDYIYNTDQSKDSLVDVPFPNSYQYIAAVDYNPRDNLLYVWNNYHVVKYSLDFG
modifications: biotin (biotinylated; residue not stated)
[1]
  binding result: binds

B2: human LPHN3 olfactomedin domain (residues V132-G392) (domain or fragment, UniProt Q9HAR2 132-392, looked up)
chain: VFLCPGLLKGVYQSEHLFESDHQSGAWCKDPLQASDKIYYMPWTPYRTDTLTEYSSKDDFIAGRPTTTYKLPHRVDGTGFVVYDGALFFNKERTRNIVKFDLRTRIKSGEAIIANANYHDTSPYRWGGKSDIDLAVDENGLWVIYATEQNNGKIVISQLNPYTLRIEGTWDTAYDKRSASNAFMICGILYVVKSVYEDDDNEATGNKIDYIYNTDQSKDSLVDVPFPNSYQYIAAVDYNPRDNLLYVWNNYHVVKYSLDFG
[2]
  Kd: 220 to 260 nM

## B3
[3]
  stoichiometry N: 2
